Several values for one entry are separate records, joined by “and”; a condition that tells them apart may be missing. Identical values can stand only once. Entries after “also recorded” stand apart in the source; their conditions may differ.
Key:
[1] = PK study (PC3) ICT3205 - 15mg/kg (5mg/kg taxol) IP Almost undetectable concentrations of ICT3205 in tumour
Protocol: Table printed on a drawing sheet, Fig. 21
Title: PK study (PC3) ICT3205 - 15mg/kg (5mg/kg taxol) IP Almost undetectable concentrations of ICT3205 in tumour
Footnotes: Tumour AUC ↑ x10-fold Tumour Cmax ↑ x10-fold } For ACTIVE Taxol / ALSO Tissue AUC ↓ Tissue Cmax ↓ x10-fold } For ACTIVE Taxol
The patent's description of the figure: FIG. 21 provides a table highlighting in greater detail the disparity of distribution between normal tissues and tumour tissues for paclitaxel alone, parent ICT3205 and paclitaxel release from the prodrug.
First reader's note: The ratio cells span the three analyte rows of each tissue and are repeated in each row; the first PC3 row is printed as 'ICT2305' (boxed) and has its own empty Cmax Ratio cell.

[2] = In vivo murine pharmacokinetic study monitoring paclitaxel release in tumour, tissues and plasma
Text: The early peak drug concentrations associated with paclitaxel dosing are removed by administration of prodrug. A 10-fold increase in tumour concentration of paclitaxel is observed following administration as ICT3205.
FIG. 21 provides a table highlighting in greater detail the disparity of distribution between normal tissues and tumour tissues for paclitaxel alone, parent ICT3205 and paclitaxel release from the prodrug.

[3] = Systemic toxicity by mouse body weight; assay type: in vivo; settings: mice
[4] = tested on: prostate tumour-associated MT-MMPs; test: Incubation in tissue culture media containing prostate tumour cells; assay type: cell-based; settings: incubation at 20 um in tissue culture media with cells; compared to other agents tested
PC3 xenografts = test: Anti-tumour efficacy study in PC3 xenografts; assay type: in vivo, mouse; settings: PC3-bearing mice; single dose; ICT3205 20 mg/kg, paclitaxel 7 mg/kg (molar equivalent)
MMP 15 = MMP 15 (Homo sapiens, UniProt P51511); test: Cleavage by recombinant MMP15 in vitro (HPLC traces); assay type: biochemical; settings: over 18 h
MMP14 = MMP14 (Homo sapiens, UniProt P50281); test: Cleavage by recombinant MMP14 in vitro (HPLC traces, mass spectrometry); assay type: biochemical; settings: over 18 h
[5] = Metabolism in LNCaP prostate cancer cell line; assay type: in vitro ADME
[6] = Incubation with normal tissue homogenates (normal tissue stability); assay type: in vitro ADME
Protocol: Parent molecules are incubated with tissue homogenate and half lives calculated Green indicates acceptable whereas red is unacceptable.
(§1) The relative importance of individual amino acids within the MT-MMP peptide recognition sequence has been investigated following extensive ex vivo metabolic studies. These studies employed tissue homogenates to assess activation of prodrug conjugates in tumour (PC-3) tissues and stability in normal tissues (liver kidney lung).

[7] = ALL Taxol Compounds (1uM) PC3 Vs Liver Vs HT1080 Metabolism
Protocol: Table printed on a drawing sheet, Fig. 7 (Cont.)
Title: ALL Taxol Compounds (1uM) PC3 Vs Liver Vs HT1080 Metabolism
(§2) Footnotes: [diagonal hatching] Tumour (51-100%) / Liver (0-15%) / [horizontal hatching] Tumour & Liver (26-50%) / [cross hatching] Tumour (0-25%) / Liver (51-100%)
First reader's note: Continuation of Fig. 7; cell hatching classifies the values per the legend, and the title states 1uM while the head row states 1mM.

[8] = ALL Taxol Compounds (1uM) (ALL Tissue Metabolism)
Protocol: Table printed on a drawing sheet, Fig. 11
Title: ALL Taxol Compounds (1uM) (ALL Tissue Metabolism)
Footnotes: Tumour (51-100%) / Liver (0-15%) / Tumour & Liver (26-50%) / Tumour (0-25%) / Liver (51-100%)
First reader's note: Cell hatching codes the classes given in the legend; all compounds tested at 1uM in tissue homogenates.

[9] = ALL Taxol Compounds (10uM) PC3 Vs Liver Vs HT1080 Metabolism
Protocol: Table printed on a drawing sheet, Fig. 8 (Cont.)
Title: ALL Taxol Compounds (10uM) PC3 Vs Liver Vs HT1080 Metabolism
as §2
First reader's note: Continuation of Fig. 8; the title prints 10uM while the head row prints 10mM, and cell hatching marks the classes given in the legend.

[10] = Top 3 Taxol Compounds (20uM) PC3 Vs LNCaP (x2) Vs PNT2 Cell-based assay
Protocol: Table printed on a drawing sheet, Fig. 9 (Cont.)
Title: Top 3 Taxol Compounds (20uM) PC3 Vs LNCaP (x2) Vs PNT2 Cell-based assay
Footnotes: [diagonal hatching] Tumour (51-100%) / Non-Tumour (0-15%) / [horizontal hatching] Tumour & Non-Tumour (26-50%) / [cross hatching] Tumour (0-25%) / Non-Tumour (51-100%)
First reader's note: Continuation of Fig. 9; cell shading (hatching) classifies the values by the legend, and all compounds were tested at 20uM in cell culture.

[11] = Incubation with PC3 tumour homogenate (tumour activation); assay type: in vitro ADME
Text: A paclitaxel (Taxol) standard is shown in the top trace,
as §1

Sequence of MMP 15 (P51511 132-669): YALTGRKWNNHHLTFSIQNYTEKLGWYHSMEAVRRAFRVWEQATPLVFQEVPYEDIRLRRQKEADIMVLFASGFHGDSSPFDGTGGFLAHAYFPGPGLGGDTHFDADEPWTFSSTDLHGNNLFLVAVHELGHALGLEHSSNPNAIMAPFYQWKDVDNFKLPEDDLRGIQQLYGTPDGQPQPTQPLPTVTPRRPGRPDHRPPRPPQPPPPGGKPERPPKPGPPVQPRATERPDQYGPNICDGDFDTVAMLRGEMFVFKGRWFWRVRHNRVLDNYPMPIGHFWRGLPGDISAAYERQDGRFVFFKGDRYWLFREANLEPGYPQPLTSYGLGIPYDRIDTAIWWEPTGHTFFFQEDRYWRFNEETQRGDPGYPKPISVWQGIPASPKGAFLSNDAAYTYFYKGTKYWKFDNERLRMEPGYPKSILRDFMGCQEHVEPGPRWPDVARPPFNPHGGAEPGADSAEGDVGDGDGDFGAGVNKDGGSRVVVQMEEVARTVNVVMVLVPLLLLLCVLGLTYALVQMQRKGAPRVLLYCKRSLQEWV

**Q.** Which results are given for `CC(=O)O[C@H]1C(=O)[C@@]2(C)C([C@H](OC(=O)c3ccccc3)[C@]3(O)C[C@H](OC(=O)[C@H](OC(=O)OCc4ccc(NC(=O)[C@H](CC(C)C)NC(=O)[C@H](Cc5ccc(O)cc5)NC(=O)[C@H](CCc5ccccc5)NC(=O)CNC(=O)[C@H](CCCNC(N)=O)NC(=O)[C@H](CO)NC(=O)[C@H](CCCNC(=N)N)NC(=O)CCNC(=S)Nc5ccc6c(c5)C(=O)OC65c6ccc(O)cc6Oc6cc(O)ccc65)cc4)[C@@H](NC(=O)c4ccccc4)c4ccccc4)C(C)=C1C3(C)C)[C@]1(OC(C)=O)CO[C@@H]1C[C@@H]2O` (some centres unmarked) [ICT3205]?
**A.** Tmax [1]: 4 h and 2 h; levels of paclitaxel released from ICT3205 in heart ([2]; heart): < 500 nM; AUC ratio of paclitaxel released from ICT3205 compared to paclitaxel administered alone, normal tissues ([2]; normal tissues, AUC in uM.h, ICT3205 20 mg/kg vs paclitaxel 7 mg/kg): 0.05-0.99; Cmax ratio of paclitaxel released from ICT3205 vs paclitaxel alone, other tissues ([2]; other tissues, ICT3205 20 mg/kg vs paclitaxel 7 mg/kg): 0.02-0.19; levels of paclitaxel released from ICT3205 in plasma ([2]; plasma): below detectable levels; AUC ratio of paclitaxel released from ICT3205 compared to paclitaxel administered alone, tumour ([2]; tumour, AUC in uM.h, ICT3205 20 mg/kg vs paclitaxel 7 mg/kg): 16.2; Cmax ratio of paclitaxel released from ICT3205 vs paclitaxel alone, tumour ([2]; tumour, ICT3205 20 mg/kg vs paclitaxel 7 mg/kg): 9.77; increase in tumour concentration of paclitaxel following administration as ICT3205 ([2]; tumour, versus equimolar paclitaxel alone): 10 fold; toxicity and adverse systemic effects as indicated by mouse body weight [3]: no toxicity and no adverse systemic effects; cleavage by prostate tumour-associated MT-MMPs and release of paclitaxel [4]: superior cleavage; anti-tumour effect (growth delay) (PC3 xenografts): highly significant growth delay; also recorded: superior anti-tumour effects; cleavage by recombinant MMP 15 (MMP 15): cleavage; cleavage by recombinant MMP14 (MMP14): cleavage; metabolism of conjugate in LNCaP [5]: metabolised equally quickly; stability in kidney and liver homogenates ([6]; kidney and liver, over other molecules): marked increased stability; appearance of paclitaxel in liver homogenate ([6]; liver homogenate): not in the liver; conjugate stability in liver homogenate ([6]; liver homogenate): relative stability; stability in normal tissue homogenates ([6]; liver, kidney, lung): stable; also recorded: long in vitro ‘half-life’ and stability; Tissue Homogenate Metabolism (1 µM) | HT1080 Stability (% loss) [7]: 60 % loss; Tissue Homogenate Metabolism (1 µM) | HT1080 Taxol Release (% gain) [7]: 58 % gain; Tissue Homogenate Metabolism (1 µM) | Liver Stability (% loss) [7]: 12 % loss; Tissue Homogenate Metabolism (1 µM) | Liver Taxol Release (% gain) [7]: 19 % gain; Tissue Homogenate Metabolism (1 µM) | PC3 Stability (% loss) [7]: 77 % loss; Tissue Homogenate Metabolism (1 µM) | PC3 Taxol Release (% gain) [7]: 85 % gain; Tissue Homogenate Metabolism (1uM) | Kidney Stability (% loss) [8]: 4 % loss; Tissue Homogenate Metabolism (1uM) | Kidney Taxol Release (% gain) [8]: 4 % gain; Tissue Homogenate Metabolism (1uM) | Lung Stability (% loss) [8]: 19 % loss; Tissue Homogenate Metabolism (1uM) | Lung Taxol Release (% gain) [8]: 12 % gain; Tissue Homogenate Metabolism (10 µM) | HT1080 Stability (% loss) [9]: 48 % loss; Tissue Homogenate Metabolism (10 µM) | HT1080 Taxol Release (% gain) [9]: 55 % gain; Tissue Homogenate Metabolism (10 µM) | Liver Stability (% loss) [9]: 12 % loss; Tissue Homogenate Metabolism (10 µM) | Liver Taxol Release (% gain) [9]: 21 % gain; Tissue Homogenate Metabolism (10 µM) | PC3 Stability (% loss) [9]: 54 % loss; Tissue Homogenate Metabolism (10 µM) | PC3 Taxol Release (% gain) [9]: 60 % gain; Cell Culture Metabolism (20uM) | LNCaP (2) Taxol Release (% gain) [10]: 81 % gain; Cell Culture Metabolism (20uM) | LNCaP Stability (% loss) [10]: 100 % loss; Cell Culture Metabolism (20uM) | LNCaP Taxol Release (% gain) [10]: 73 % gain; Cell Culture Metabolism (20uM) | PC3 Stability (% loss) [10]: 84 % loss; Cell Culture Metabolism (20uM) | PC3 Taxol Release (% gain) [10]: 49 % gain; Cell Culture Metabolism (20uM) | PNT2 Stability (% loss) [10]: 21 % loss; Cell Culture Metabolism (20uM) | PNT2 Taxol Release (% gain) [10]: 12 % gain; metabolism (disappearance, activation) of conjugate in PC3 ([11]; PC3 prostate cancer cell line homogenate): disappearance; also recorded: metabolised equally quickly; also recorded: metabolised rapidly; paclitaxel release in PC3 tumour ([11]; PC3 tumour homogenate): differential release of free paclitaxel; also recorded: appearance of paclitaxel

**Q.** For `CC(=O)O[C@H]1C(=O)[C@@]2(C)[C@H]([C@H](OC(=O)c3ccccc3)[C@]3(O)C[C@H](OC(=O)[C@H](O)[C@@H](NC(=O)c4ccccc4)c4ccccc4)C(C)=C1C3(C)C)[C@]1(OC(C)=O)CO[C@@H]1C[C@@H]2O` [paclitaxel, Paclitaxel, reference compound], which “anti-tumour effect (growth delay)” value (PC3 xenografts) is on record?
**A.** no significant anti-tumour effect; also recorded: no efficacy

**Q.** Which results are given for MeO (PEG) [ICT3200]?
**A.** Tissue Homogenate Metabolism (1 µM) | HT1080 Stability (% loss) [7]: 72 % loss; Tissue Homogenate Metabolism (1 µM) | HT1080 Taxol Release (% gain) [7]: 29 % gain; Tissue Homogenate Metabolism (1 µM) | Liver Stability (% loss) [7]: 5 % loss; Tissue Homogenate Metabolism (1 µM) | Liver Taxol Release (% gain) [7]: 5 % gain; Tissue Homogenate Metabolism (1 µM) | PC3 Stability (% loss) [7]: 82 % loss; Tissue Homogenate Metabolism (1 µM) | PC3 Taxol Release (% gain) [7]: 36 % gain; Tissue Homogenate Metabolism (1uM) | Kidney Stability (% loss) [8]: 32 % loss; Tissue Homogenate Metabolism (1uM) | Kidney Taxol Release (% gain) [8]: 25 % gain; Tissue Homogenate Metabolism (1uM) | Lung Stability (% loss) [8]: 64 % loss; Tissue Homogenate Metabolism (1uM) | Lung Taxol Release (% gain) [8]: 31 % gain; Tissue Homogenate Metabolism (10 µM) | HT1080 Stability (% loss) [9]: 61 % loss; Tissue Homogenate Metabolism (10 µM) | HT1080 Taxol Release (% gain) [9]: 30 % gain; Tissue Homogenate Metabolism (10 µM) | Liver Stability (% loss) [9]: 0 % loss; Tissue Homogenate Metabolism (10 µM) | Liver Taxol Release (% gain) [9]: 8 % gain; Tissue Homogenate Metabolism (10 µM) | PC3 Stability (% loss) [9]: 80 % loss; Tissue Homogenate Metabolism (10 µM) | PC3 Taxol Release (% gain) [9]: 36 % gain; Cell Culture Metabolism (20uM) | LNCaP (2) Stability (% loss) [10]: 62 % loss; Cell Culture Metabolism (20uM) | LNCaP (2) Taxol Release (% gain) [10]: 51 % gain; Cell Culture Metabolism (20uM) | LNCaP Stability (% loss) [10]: 61 % loss; Cell Culture Metabolism (20uM) | LNCaP Taxol Release (% gain) [10]: 62 % gain; Cell Culture Metabolism (20uM) | PC3 Stability (% loss) [10]: 89 % loss; Cell Culture Metabolism (20uM) | PC3 Taxol Release (% gain) [10]: 49 % gain; Cell Culture Metabolism (20uM) | PNT2 Stability (% loss) [10]: 60 % loss; Cell Culture Metabolism (20uM) | PNT2 Taxol Release (% gain) [10]: 22 % gain
